The supplement of paper PMC10065799, “High-throughput profiling of sequence recognition by tyrosine kinases and SH2 domains using bacterial peptide display” (eLife, 2023)

Columns and labels:
SHP2-C SH2 = assay: SH2 binding enrichment of the phosphorylated peptide, bacterial display (enrichment ratio); higher = better substrate or ligand; peptides without Tyr show the background
c-Src SH2 = assay: as above
Grb2 SH2 = Grb2 SH2 (UniProt P62993); assay: as above
Fer (mouse) = assay: phosphorylation enrichment, bacterial display (enrichment ratio); higher = better substrate or ligand; peptides without Tyr show the background
c-Abl (mouse) = assay: as above
Jak2 = Jak2 (UniProt O60674); assay: as above
Jak2, sequence (O60674 whole entry, looked up): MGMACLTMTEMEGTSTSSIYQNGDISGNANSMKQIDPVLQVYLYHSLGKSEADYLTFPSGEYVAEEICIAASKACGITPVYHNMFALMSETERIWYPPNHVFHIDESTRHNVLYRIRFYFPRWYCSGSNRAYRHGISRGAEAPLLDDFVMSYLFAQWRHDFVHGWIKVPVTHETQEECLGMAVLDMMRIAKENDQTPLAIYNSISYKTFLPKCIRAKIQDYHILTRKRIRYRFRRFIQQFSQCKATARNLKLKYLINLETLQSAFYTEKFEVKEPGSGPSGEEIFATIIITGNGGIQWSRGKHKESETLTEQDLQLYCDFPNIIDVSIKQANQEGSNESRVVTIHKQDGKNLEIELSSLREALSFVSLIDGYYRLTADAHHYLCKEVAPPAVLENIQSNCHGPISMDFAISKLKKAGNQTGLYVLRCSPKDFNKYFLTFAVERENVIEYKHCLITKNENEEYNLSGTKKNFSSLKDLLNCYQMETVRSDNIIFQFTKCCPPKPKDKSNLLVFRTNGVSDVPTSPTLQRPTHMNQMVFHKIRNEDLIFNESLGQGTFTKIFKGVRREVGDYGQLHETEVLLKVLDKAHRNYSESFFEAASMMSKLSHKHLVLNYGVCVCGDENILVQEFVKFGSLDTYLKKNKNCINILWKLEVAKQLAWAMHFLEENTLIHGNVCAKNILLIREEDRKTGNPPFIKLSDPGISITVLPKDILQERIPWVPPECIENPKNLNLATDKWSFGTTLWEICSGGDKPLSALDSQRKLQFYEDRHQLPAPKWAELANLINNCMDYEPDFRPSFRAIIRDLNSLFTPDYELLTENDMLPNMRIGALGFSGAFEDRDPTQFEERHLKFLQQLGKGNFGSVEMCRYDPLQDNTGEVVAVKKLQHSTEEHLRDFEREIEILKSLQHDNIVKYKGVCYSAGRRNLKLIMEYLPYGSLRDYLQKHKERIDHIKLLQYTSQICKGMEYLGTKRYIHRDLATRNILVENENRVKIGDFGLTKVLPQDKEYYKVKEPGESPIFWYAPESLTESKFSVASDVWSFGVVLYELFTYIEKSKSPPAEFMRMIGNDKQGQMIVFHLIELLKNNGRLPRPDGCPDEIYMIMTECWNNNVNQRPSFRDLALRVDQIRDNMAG

AncSZ = assay: as above
Fyn = Fyn (UniProt P06241); assay: as above
Fyn, sequence (P06241 whole entry, looked up): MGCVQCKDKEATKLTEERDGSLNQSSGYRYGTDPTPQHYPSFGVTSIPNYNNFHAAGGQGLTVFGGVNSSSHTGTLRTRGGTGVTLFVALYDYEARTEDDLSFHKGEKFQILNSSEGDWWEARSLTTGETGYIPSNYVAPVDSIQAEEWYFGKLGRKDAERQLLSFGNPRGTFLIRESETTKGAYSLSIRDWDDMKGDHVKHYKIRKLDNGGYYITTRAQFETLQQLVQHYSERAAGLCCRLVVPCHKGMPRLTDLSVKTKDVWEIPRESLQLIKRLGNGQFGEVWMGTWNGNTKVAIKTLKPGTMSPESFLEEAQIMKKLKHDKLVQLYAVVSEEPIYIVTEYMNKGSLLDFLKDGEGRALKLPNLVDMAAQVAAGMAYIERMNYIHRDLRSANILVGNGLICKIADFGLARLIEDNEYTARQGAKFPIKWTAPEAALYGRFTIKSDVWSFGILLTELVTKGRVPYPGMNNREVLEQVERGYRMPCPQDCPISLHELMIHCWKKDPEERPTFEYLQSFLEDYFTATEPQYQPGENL

FGFR1 = FGFR1 (UniProt P11362); assay: as above
c-Src = assay: as above
EPHB2 = EPHB2 (UniProt P29323); assay: as above
EPHB2, sequence (P29323 whole entry, looked up): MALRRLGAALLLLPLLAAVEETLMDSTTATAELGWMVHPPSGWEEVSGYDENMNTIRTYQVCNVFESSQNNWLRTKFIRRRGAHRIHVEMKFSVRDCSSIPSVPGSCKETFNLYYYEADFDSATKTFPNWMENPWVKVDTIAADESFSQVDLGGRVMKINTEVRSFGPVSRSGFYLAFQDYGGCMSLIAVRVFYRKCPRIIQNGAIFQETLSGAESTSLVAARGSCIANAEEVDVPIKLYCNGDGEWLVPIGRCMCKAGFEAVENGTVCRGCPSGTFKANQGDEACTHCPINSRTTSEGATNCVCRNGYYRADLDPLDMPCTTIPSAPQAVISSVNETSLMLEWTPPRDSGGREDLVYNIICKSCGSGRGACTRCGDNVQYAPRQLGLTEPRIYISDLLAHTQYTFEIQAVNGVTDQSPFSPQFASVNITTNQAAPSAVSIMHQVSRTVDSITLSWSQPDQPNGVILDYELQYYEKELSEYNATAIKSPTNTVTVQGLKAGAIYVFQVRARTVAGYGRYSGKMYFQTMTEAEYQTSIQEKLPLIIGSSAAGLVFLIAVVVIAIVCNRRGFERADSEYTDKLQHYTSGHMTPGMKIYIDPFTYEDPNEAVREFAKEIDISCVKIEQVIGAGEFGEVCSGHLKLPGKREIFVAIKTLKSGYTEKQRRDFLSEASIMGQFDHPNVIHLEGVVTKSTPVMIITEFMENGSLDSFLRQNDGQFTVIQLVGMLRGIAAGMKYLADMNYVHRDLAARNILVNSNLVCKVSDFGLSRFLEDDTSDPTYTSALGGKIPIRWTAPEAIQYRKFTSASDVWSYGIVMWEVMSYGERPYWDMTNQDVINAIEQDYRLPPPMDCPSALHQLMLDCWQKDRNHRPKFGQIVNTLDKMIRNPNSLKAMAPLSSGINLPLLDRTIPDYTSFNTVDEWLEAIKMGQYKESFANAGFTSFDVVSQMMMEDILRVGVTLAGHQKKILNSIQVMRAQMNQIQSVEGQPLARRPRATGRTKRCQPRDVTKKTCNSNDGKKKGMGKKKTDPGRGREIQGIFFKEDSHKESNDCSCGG

Hck = Hck (UniProt P08631); assay: as above
Hck, sequence (P08631 whole entry, looked up): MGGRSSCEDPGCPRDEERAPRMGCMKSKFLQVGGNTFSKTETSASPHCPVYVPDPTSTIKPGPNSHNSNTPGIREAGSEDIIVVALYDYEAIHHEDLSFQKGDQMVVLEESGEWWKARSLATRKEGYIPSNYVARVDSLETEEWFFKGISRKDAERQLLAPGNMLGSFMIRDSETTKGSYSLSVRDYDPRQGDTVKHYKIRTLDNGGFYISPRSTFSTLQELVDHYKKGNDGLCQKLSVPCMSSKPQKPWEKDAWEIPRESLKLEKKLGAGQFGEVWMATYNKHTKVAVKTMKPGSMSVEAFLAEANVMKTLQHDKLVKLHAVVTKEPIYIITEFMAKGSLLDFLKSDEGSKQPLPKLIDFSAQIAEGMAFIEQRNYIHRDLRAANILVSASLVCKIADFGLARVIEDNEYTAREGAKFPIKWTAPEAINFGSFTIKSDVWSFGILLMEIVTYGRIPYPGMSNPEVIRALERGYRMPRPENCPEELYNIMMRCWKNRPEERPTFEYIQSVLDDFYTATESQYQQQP

EPHB1 = EPHB1 (UniProt P54762); assay: as above
EPHB1, sequence (P54762 whole entry, looked up): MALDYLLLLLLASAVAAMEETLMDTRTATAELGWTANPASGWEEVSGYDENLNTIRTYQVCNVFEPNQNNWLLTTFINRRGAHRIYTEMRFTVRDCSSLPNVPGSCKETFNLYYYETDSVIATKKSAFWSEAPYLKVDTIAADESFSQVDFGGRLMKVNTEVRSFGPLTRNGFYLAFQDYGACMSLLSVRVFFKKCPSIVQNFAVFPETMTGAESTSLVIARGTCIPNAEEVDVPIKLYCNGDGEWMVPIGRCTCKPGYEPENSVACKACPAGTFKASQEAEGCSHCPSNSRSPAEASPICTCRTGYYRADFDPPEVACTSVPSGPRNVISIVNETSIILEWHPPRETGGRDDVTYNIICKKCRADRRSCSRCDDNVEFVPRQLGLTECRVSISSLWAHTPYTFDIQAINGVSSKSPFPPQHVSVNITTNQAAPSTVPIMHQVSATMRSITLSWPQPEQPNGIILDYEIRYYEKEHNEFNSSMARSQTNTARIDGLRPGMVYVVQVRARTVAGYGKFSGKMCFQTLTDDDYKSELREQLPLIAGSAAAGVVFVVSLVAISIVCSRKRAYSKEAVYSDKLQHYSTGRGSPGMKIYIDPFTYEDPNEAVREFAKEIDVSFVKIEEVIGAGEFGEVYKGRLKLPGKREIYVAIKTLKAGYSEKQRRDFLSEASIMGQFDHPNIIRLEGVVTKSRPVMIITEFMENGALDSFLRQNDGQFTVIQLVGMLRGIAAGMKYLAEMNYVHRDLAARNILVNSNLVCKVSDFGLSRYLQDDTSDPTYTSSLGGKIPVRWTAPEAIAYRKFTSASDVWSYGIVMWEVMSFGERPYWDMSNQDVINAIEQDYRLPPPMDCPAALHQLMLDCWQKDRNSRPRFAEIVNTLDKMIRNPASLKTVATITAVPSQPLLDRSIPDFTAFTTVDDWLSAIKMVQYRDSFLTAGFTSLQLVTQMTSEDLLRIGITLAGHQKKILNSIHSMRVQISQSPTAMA

FGFR3 = FGFR3 (UniProt P22607); assay: as above
FGFR3, sequence (P22607 whole entry, looked up): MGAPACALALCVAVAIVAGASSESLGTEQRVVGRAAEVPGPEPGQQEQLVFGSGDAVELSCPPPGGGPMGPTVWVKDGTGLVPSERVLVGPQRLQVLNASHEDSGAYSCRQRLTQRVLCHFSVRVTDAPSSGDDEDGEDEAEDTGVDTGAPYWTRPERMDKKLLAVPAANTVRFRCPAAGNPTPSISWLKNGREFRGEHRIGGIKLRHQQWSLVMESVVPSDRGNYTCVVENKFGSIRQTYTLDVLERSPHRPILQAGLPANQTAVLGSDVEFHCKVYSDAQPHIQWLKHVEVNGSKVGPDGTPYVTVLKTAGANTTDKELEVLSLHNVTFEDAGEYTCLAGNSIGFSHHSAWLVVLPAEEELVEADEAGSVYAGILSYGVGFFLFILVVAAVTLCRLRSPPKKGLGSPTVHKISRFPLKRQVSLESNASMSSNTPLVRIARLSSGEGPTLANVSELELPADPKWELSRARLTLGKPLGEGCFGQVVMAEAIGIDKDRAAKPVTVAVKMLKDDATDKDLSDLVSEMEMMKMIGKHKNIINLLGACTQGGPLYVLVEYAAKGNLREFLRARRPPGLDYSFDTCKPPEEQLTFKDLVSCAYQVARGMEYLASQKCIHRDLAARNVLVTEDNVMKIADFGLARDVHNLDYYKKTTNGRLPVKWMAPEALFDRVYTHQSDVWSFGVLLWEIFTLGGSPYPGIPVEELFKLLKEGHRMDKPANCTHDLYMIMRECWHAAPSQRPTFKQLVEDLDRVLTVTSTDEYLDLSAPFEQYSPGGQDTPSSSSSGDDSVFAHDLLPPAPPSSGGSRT

MERTK = MERTK (UniProt Q12866); assay: as above
Fes = Fes (UniProt P07332); assay: as above
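Wherever SH2 binding enrichment of the phosphorylated peptide, bacterial display is given: peptide library displayed on the E. coli surface as eCPX fusions, selected cells deep-sequenced, score is each peptide's frequency after selection divided by its frequency in the input.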
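Wherever phosphorylation enrichment, bacterial display is given: 11-residue human phosphosite peptides and single-mutation variants displayed on the E. coli surface, counted by deep sequencing, each peptide's frequency after selection divided by its frequency in the unselected input library; frequency after pTyr selection over input frequency; kinase dosed for 20-30% of maximal phosphorylation in three min.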

Sequence	SH2 binding enrichment (SHP2-C SH2)	SH2 binding enrichment (c-Src SH2)	SH2 binding enrichment (Grb2 SH2)	phosphorylation enrichment (Fer (mouse))	phosphorylation enrichment (c-Abl (mouse))	phosphorylation enrichment (Jak2)	phosphorylation enrichment (AncSZ)	phosphorylation enrichment (Fyn)	phosphorylation enrichment (FGFR1)	phosphorylation enrichment (c-Src)	phosphorylation enrichment (EPHB2)	phosphorylation enrichment (Hck)	phosphorylation enrichment (EPHB1)	phosphorylation enrichment (FGFR3)	phosphorylation enrichment (MERTK)	phosphorylation enrichment (Fes)
VTPVMYTFDEF [COL10A1_Y623_G618V_YF]	0.698	0.772	0.93	0.458	0.662	1.02	1.03	0.737	0.591	0.715	0.668	0.531	0.665	0.654	0.962	1.19
FASTGYVIAIQ [GRIN2B_Y762_G763V]	1.07	0.742	0.94	0.543	0.784	0.941	1.32	0.474	0.484	0.4	0.587	0.418	0.618	0.724	0.393	0.983
LKKLEYLNLAL [LRRC6_Y70]	1.49	0.424	2.59	0.549	0.574	1.23	1.05	0.408	1.36	0.367	0.987	0.489	0.81	1.14	0.296	1.43
GIVKAYFVHAR [AIPL1_Y267_R270H_YF]	1.71	1.01	1.3	0.481	0.602	0.73	0.795	0.449	0.388	0.428	0.494	0.461	0.422	0.605	0.448	0.872
LYSINYLHFGD [KDM4C_Y201_E206D]	2.45	1.2	1.69	15.8	1.73	1.47	1.99	4.87	5.82	3.68	12.1	4.59	12.7	3.85	12.8	1.84
RRNEIYEIKVD [LGR5_Y387_H383R]	0.692	0.426	0.986	0.757	0.574	0.669	1.09	5.59	0.923	4.83	1.4	5.36	0.751	0.771	0.468	1.36
VNKIFHPDFIV [LIG3_Y768_Y768H_YF]	0.744	0.462	0.873	0.397	0.6	0.695	0.793	0.447	0.419	0.497	0.454	0.39	0.487	0.547	0.432	0.871
GHMFAYDWISI [BEST1_Y227_L224M_YF]	1.03	1.15	1.25	13.8	0.922	0.842	1.47	0.935	3.48	1.28	0.933	1.78	1.05	2.15	7.14	2.68
ERPIRYLNHQL [CEP152_Y268_Q265P]	0.627	0.488	1.18	0.417	0.552	0.476	0.504	0.457	0.383	0.46	0.409	0.393	0.421	0.424	0.497	0.591
VRTSKYRGGGG [HBA1_Y141_L137R]	0.571	0.353	0.602	0.365	0.637	0.609	0.64	0.426	0.423	0.542	0.407	0.424	0.366	0.618	0.648	0.676
LSSEMCVKSFT [F5_Y2149_Y2149C_YF]	0.603	0.641	1	0.815	0.932	1.11	1.36	0.683	1.07	0.726	1.34	0.971	0.472	1.13	0.854	1.45
YCRHNYGVVES [HLA-DRB1_Y112]	0.927	1.64	1.2	0.41	0.675	0.681	0.557	0.385	0.568	0.484	2.87	0.458	1.52	0.527	0.592	0.798
GRVLGYGTFGK [FLT4_Y853_A855T]	0.7	0.725	1.01	0.393	0.533	0.617	0.553	0.543	0.338	0.623	0.538	0.417	0.372	0.414	0.369	0.633
SNNFIYTTLGV [FAM83B_Y639_K640T_YF]	0.927	0.72	0.936	2.67	1.56	0.666	0.899	7.76	1.22	5.65	1.39	7.53	2.23	1.16	6.9	0.885
KDKLPYLYDDP [GPX2_Y125_P126L]	0.682	1.04	0.871	0.77	0.547	0.857	1.17	0.522	0.5	0.455	0.765	0.537	0.947	0.624	0.461	0.983
RETLTYAQAQR [BRD1_Y33]	0.819	0.753	0.904	0.42	0.963	0.694	0.702	0.584	0.541	0.623	0.478	0.746	0.383	0.525	0.529	0.737
AEEPIYIIVPA [BMXtide_2014]	0.956	0.83	1.05	11.1	8.02	2.47	4.75	10.1	13.9	8.8	24.2	7.96	18.5	12.1	9.02	2.98
DNQFAYLKAII [HNF4A_Y288_E285Q_YF]	0.62	0.353	0.782	0.592	0.711	1.02	1.16	0.396	0.473	0.372	0.595	0.393	0.43	0.702	0.369	1.33

The next lines start with results.

SH2 binding enrichment (SHP2-C SH2)	SH2 binding enrichment (c-Src SH2)	SH2 binding enrichment (Grb2 SH2)	Sequence	phosphorylation enrichment (Fer (mouse))	phosphorylation enrichment (c-Abl (mouse))	phosphorylation enrichment (Jak2)	phosphorylation enrichment (AncSZ)	phosphorylation enrichment (Fyn)	phosphorylation enrichment (FGFR1)	phosphorylation enrichment (c-Src)	phosphorylation enrichment (EPHB2)	phosphorylation enrichment (Hck)	phosphorylation enrichment (EPHB1)	phosphorylation enrichment (FGFR3)	phosphorylation enrichment (MERTK)	phosphorylation enrichment (Fes)
0.75	0.544	0.869	HLVSEYQQFQD [TUBB3_Y422_D417H_YF]	0.338	0.559	0.917	1.07	0.577	0.741	0.728	0.916	0.524	0.819	0.54	0.336	0.974
0.639	0.469	0.883	APGNAYGDAGF [SYP_Y250_D248N_YF]	0.369	0.443	0.52	0.527	0.339	0.373	0.322	0.313	0.433	0.351	0.412	0.348	0.504
0.51	0.559	0.949	KRIETYFSKNF [PLP1_Y50_L46R_YF]	0.46	0.752	0.723	0.703	0.499	0.516	0.467	0.417	0.47	0.43	0.532	0.395	0.874
0.742	0.611	0.866	IYRASYVPFAA [RBM47_Y541_G538R]	0.521	7.02	0.82	1.04	0.593	0.562	0.681	0.571	0.657	0.81	0.645	0.66	0.897
0.641	0.489	0.849	AGGTRYRFVSQ [UCN3_Y95_R91G_YF]	0.386	0.576	0.465	0.426	0.536	0.461	0.393	0.272	0.338	0.397	0.377	0.363	0.43
1.07	2.03	0.83	QLQQAYQEAFE [YWHAZ_Y149_S145L]	1.72	1.6	1.77	2.59	1.23	1.76	1.12	1.69	1.67	1.43	3.04	1.29	2.69
0.888	0.464	0.976	NKVQFYIPDMN [NCR1_Y84_K82Q]	0.447	0.744	1.01	0.801	0.411	0.579	0.431	0.533	0.532	0.501	0.711	0.483	0.984
0.532	0.553	0.755	RTLSEYARPHV [RERE_Y1259]	0.468	31.7	0.871	1.14	0.668	0.606	0.454	0.852	0.683	0.832	0.51	0.443	1.11
0.859	0.512	1.01	KQRSDYARELE [MYH3_Y1140]	0.358	0.625	0.596	0.636	0.417	0.331	0.362	0.435	0.393	0.38	0.481	0.38	0.789
0.583	0.766	0.959	KSSDVYVSYDC [SORL1_Y136_Y141C]	0.663	0.772	0.934	1.22	4.79	1.52	3.82	0.993	1.87	0.866	1.35	0.611	1.13
0.715	0.578	0.841	HFGCVYYGTLL [MET_Y1093_H1094Y]	1.76	1.82	2.13	1.88	3.77	2.69	8.21	1.42	2.43	1.5	2.19	1.11	2.43
